Experiment [1] concerns the target T1, Sec61-CPLV (S. cerevisiae).
T1 sequence (P32915 whole entry, looked up): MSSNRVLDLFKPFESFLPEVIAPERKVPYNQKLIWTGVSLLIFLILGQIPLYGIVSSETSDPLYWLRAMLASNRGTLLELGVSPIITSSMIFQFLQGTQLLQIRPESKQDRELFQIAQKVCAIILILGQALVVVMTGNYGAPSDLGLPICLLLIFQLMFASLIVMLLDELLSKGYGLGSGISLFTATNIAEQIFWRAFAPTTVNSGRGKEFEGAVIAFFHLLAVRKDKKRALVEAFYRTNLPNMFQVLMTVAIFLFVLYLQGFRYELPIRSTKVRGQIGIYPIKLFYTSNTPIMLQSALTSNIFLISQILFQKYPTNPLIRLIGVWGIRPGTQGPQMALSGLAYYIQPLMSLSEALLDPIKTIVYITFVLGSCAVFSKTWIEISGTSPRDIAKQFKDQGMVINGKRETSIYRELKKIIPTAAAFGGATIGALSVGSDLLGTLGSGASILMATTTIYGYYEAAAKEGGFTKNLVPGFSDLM
The experiment is described as follows: two-hybrid; split-ubiquitin, liquid beta-galactosidase assay (ONPG) on cell lysates, 30°C for 180 min, mean of 6 samples.

Experiment [2] has as its target T2, Ssh1-CPLV (S. cerevisiae).
T2 sequence (P38353 whole entry, looked up): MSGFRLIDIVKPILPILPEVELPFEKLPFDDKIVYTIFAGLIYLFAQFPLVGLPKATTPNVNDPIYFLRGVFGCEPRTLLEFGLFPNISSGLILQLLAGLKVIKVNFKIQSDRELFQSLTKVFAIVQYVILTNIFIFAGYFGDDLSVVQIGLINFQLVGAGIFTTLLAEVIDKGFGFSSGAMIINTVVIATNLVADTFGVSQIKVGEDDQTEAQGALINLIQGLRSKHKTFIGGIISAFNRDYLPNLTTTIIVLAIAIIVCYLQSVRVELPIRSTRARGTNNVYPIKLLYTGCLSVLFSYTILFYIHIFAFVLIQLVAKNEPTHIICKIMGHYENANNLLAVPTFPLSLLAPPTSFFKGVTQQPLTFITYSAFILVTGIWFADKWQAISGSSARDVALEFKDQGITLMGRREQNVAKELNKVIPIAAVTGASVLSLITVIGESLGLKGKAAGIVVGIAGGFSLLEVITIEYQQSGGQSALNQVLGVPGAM
Described as above.

For experiment [3], the target named is T1, Sec61-CPLV (S. cerevisiae). As to the kind of experiment: split reporter (BiFC, NanoBiT); split-ubiquitin, cleavage of PLV from the bait read by quantitative immunoblot of cell lysates with anti-PLV and 125I-Protein A; ratio of cleaved PLV to Arf1p. (Immunoblotting shows a protein as a band on a membrane.)
Experiment [4] deals with T2, Ssh1-CPLV (S. cerevisiae). The description is as above.

We go through four molecules from PMC3618304.

B1: Nub-Sbh2p (natural protein)
chain: MAASVPPGGQRILQKRRQAQSIKEKQAKQTPTSTRQAGYGGSSSSILKLYTDEANGFRVDSLVVLFLSVGFIFSVIALHLLTKFTHII
Turning to B1, the beta-galactosidase units in experiment [1] was 0.28 U; in experiment [2] it was 0.45 U. Moreover, the cleaved PLV relative to Arf1p (arbitrary units) in experiment [3] came out at 9.6; in experiment [4], 7.2.

B2: Nub-Sss1p (natural protein)
chain: MARASEKGEEKKQSNNQVEKLVEAPVEFVREGTQFLAKCKKPDLKEYTKIVKAVGIGFIAVGIIGYAIKLIHIPIRYVIV
As for B2, the beta-galactosidase units amounted to 6 U in experiment [1] and 0.55 U in experiment [2]. Further, the cleaved PLV relative to Arf1p (arbitrary units) in experiment [3] came out at 15; in experiment [4] it was 7.1.

B3: Nub-Sbh1p (natural protein)
chain: MSSPTPPGGQRTLQKRKQGSSQKVAASAPKKNTNSNNSILKIYSDEATGLRVDPLVVLFLAVGFIFSVVALHVISKVAGKLF
As to B3, the beta-galactosidase units was 9.8 U in experiment [1] and 0.43 U in experiment [2]. Besides, the cleaved PLV relative to Arf1p (arbitrary units) in experiment [3] was 18; in experiment [4] it was 7.1.

B4: Nub-Sec62p (natural protein)
chain: MSAVGPGSNAGASVNGGSATAIATLLRNHKELKQRQGLFQAKQTDFFRYKRFVRALHSEEYANKSARQPEIYPTIPSNKIEDQLKSREIFIQLIKAQMVIPVKKLHSQECKEHGLKPSKDFPHLIVSNKAQLEADEYFVWNYNPRTYMDYLIVIGVVSIILALVCYPLWPRSMRRGSYYVSLGAFGILAGFFAVAILRLILYVLSLIVYKDVGGFWIFPNLFEDCGVLESFKPLYGFGEKDTYSYKKKLKRMKKKQAKRESNKKKAINEKAEQN
Regarding B4, the cleaved PLV relative to Arf1p (arbitrary units) in experiment [3] amounted to 6.6.
